Assay results: patent publication US20230128344A1 (UNIVERSITY OF SOUTHERN CALIFORNIA, published 2023)

Molecular target: T1, hCLL-1 on U937 human AML cells (human, UniProt Q5QGZ9 1-265)
T1 sequence (looked up): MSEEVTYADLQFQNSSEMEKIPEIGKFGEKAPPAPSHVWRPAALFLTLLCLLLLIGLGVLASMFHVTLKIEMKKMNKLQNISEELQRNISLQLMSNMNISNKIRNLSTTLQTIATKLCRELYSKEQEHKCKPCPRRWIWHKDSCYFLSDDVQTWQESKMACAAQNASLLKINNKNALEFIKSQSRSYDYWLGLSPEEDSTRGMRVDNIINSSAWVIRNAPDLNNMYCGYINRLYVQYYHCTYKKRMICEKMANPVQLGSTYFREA
Assay: cell-based or functional assay

B1: DAR2-ARC-ADC (DAR2-ARC-IgG conjugated with 2'-Cl-araNAD+-MMAF) (antibody)
heavy: not shown
light: ENVLTQSPAIMSASPGEKVTMTCRASSNVISSYVHWYQQRSGASPKLWIYSTSNLASGVPARFSGSGSGTSYSLTISSVEAEDAATYYCQQYSGYPLTFGAGTKLELKRAAAAPSVFIFPPSDEQLKSGTASVVCLLNNFYPREAKVQWKVDNALQSGNSQESVTEQDSKDSTYSLSSTLTLSKADYEKHKVYACEVTHQGLSSPVTKSFNRGEC
modifications: 2'-Cl-arabinose-ADP-MMAF on Glu226 of the CD38 domain (CD38 numbering)
in vitro cytotoxicity EC50 on U937 (CLL-1+) cells (MTT, 72 hours): 0.9 nM
